Experiment [1] concerns the target T1, Human 4-1BB His (human, UniProt Q07011 24-186).
T1 construct: Bought protein; lots 198-2146F1-W6 and 2407c-214FF1-YC; also called human 4-1BB protein; 4-1BB protein; not shown: His tag
Briefly: BLI, antibody on AHC sensor, 100 nM 4-1BB His in solution. From the text: (§1) The variable region of the antibody sequence of the positive control consists of SEQ ID NO: 15 and SEQ ID NO: 19, with the addition of the constant region of human IgG1 (SEQ ID NO: 46 and SEQ ID NO: 47). The AHC sensor was soaked in 0.02% PBST (0.02% Tween 20, pH 7.4, 1× PBS) as a buffer for 600 s to remove the sucrose covering the sensor surface. The AHC sensor was equilibrated with 0.02% PBST (0.02% Tween 20, pH 7.4, 1× PBS) as a buffer for 60 s, the antibody in the sample plate was solidified for 300 s, and the secondary equilibration buffer was used for 180 s. 100 nM human 4-1BB His (manufacturer: Acro, CAT: 41B-H5258, LOT: 198-2146F1-W6) protein was bound to the antibody for 300 s and then dissociated for 600 s. After dissociation, 10 mM glycine (pH 2.0) was used as a regeneration buffer for 30 s. The sensor was regenerated with 10 mM glycine (pH 2.0).

Experiment [2] addresses T1, Human 4-1BB His. Description: ELISA: Human 4-1BB His coated (0.2 ug/mL), antibody titrated, goat anti-human IgG Fc detection (Example 3). The method, then:
(§2) Human 4-1BB His (manufacturer: Acro, CAT: 41B-H5258, LOT: 198-2146F1-W6) was diluted to 0.2 μg/mL with a coating solution (1×PBS, pH7.4), and coated in 96-well ELISA plate at 100 μL/well overnight at 4° C. The coating solution was poured off. Each well was washed with 1×PBST at 300 μL, washed 4 times with a plate washer, and patted dry on a flat paper. It was blocked with 3% skim milk powder at 300 μL/well, and incubated at 37° C. for 1 h. The blocking solution was poured off, washed 4 times with a plate washer, and patted dry on a flat paper. Negative control and positive control were set up. […] The variable region of the antibody sequence of the positive control consists of SEQ ID NO: 15 and SEQ ID NO: 19, with the addition of the constant region of human IgG1 (SEQ ID NO: 46 and SEQ ID NO: 47). The positive control and antibody were diluted to 10 μg/mL with 3% skim milk powder as the starting concentration, and then diluted by 3-fold gradient (11 gradients in total), and a blank well was set up and only the diluent was added. It was incubated at 37° C. for 1 h at 100 μL/well. The liquid in the well was discarded, washed 4 times with a plate washer, and patted dry on a flat paper. Goat anti-human IgG Fc was diluted with 3% skim milk powder at 1:20000, and incubated at 37° C. for 1 h at 100 μL/well. It was washed 6 times with a plate washer, and patted dry on a flat paper. TMB color developing solution was added at 100 μL/well, and wrapped with aluminum foil. Color development was performed at 37° C. in the dark for 8 min. Termination solution 1M HCl was added to terminate the color development reaction at 100 μL/well. Readings were taken at 450 nm on an ELISA reader.

The target of experiment [3] is T1, Human 4-1BB His. The description is as above. Here is the method: as §2
This is another data set of the same source.

Experiment [4] addresses T1, Human 4-1BB His. Described as above. The method, then: as §2
This is another data set of the same source.

The target of experiment [5] is T1, Human 4-1BB His. The description is as above. Here is the method: as §2
The source holds these as a separate data set.

The target in experiment [6] is T1, Human 4-1BB His. The experiment is described as above. The method, then:
as §2
This is another data set of the same source.

Experiment [7] addresses T1, Human 4-1BB His. The experiment is described as above. Here is the method:
as §2, with “It was washed 6 times with a plate washer, and patted dry on a flat paper. TMB color developing solution was added at 100 μL/well, and wrapped with aluminum foil. Color development was performed at 37° C. in the dark for 8 min. Termination solution 1M HCl was added to terminate the color development reaction at 100 μL/well.” left out
This is another data set of the same source.

Experiment [8] addresses T2, Human-TNFR2-His (human, UniProt P20333 23-257).
T2 construct: Bought protein; also called human TNFR2 protein; TNFR2 protein; not shown: His tag
T2 sequence (looked up): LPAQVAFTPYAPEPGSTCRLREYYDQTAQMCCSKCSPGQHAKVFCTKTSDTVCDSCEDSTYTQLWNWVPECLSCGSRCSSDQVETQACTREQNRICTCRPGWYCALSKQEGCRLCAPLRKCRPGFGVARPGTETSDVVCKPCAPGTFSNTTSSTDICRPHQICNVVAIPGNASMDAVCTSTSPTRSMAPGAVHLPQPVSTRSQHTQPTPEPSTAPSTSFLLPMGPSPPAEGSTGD
Description: BLI, antibody on AHC sensor, 100 nM TNFR2-His in solution. Here is the method:
as §1, with “The” for “The variable region of the antibody sequence of the positive control consists of SEQ ID NO: 15 and SEQ ID NO: 19, with the addition of the constant region of human IgG1 (SEQ ID NO: 46 and SEQ ID NO: 47). The”, “1×PBS)” for “1× PBS)”, “human-TNFR2-His” for “human 4-1BB His”, “SINO,” for “Acro,”, “10417-H08H,” for “41B-H5258,”, “LC15NO0412)” for “198-2146F1-W6)”
(BLI is a label-free optical method that tracks binding on a fibre tip over time.)

Experiment [9] concerns the target T2, Human-TNFR2-His. Briefly: ELISA: Human-TNFR2-His coated (0.1 ug/mL), antibody titrated, goat anti-human IgG Fc detection (Example 2). For orientation: ELISA stands for enzyme-linked immunosorbent assay.
The target in experiment [10] is T2, Human-TNFR2-His. The experiment is described as above. The method, then: (§3) Human-TNFR2-His (manufacturer: SINO, CAT: 10417-H08H, LOT: LC15NO0412) was diluted to 0.1 μg/mL with a coating solution (1×PBS, pH7.4), and coated in 96-well ELISA plate at 100 µL/well overnight at 4° C. The coating solution was poured off. Each well was washed with 1×PBST at 300 μL, washed 4 times with a plate washer, and patted dry on a flat paper. It was blocked with 3% skim milk powder at 300 μL/well, and incubated at 37° C. for 1 h. The blocking solution was poured off, washed 4 times with a plate washer, and patted dry on a flat paper. Negative control and positive control were set up. […] The positive control and antibody were diluted to 10 μg/mL with 3% skim milk powder as the starting concentration, and then diluted by 3-fold gradient (11 gradients in total), and a blank well was set up and only the diluent was added. It was incubated at 37° C. for 1 h at 100 μL/well. The liquid in the well was discarded, washed 4 times with a plate washer, and patted dry on a flat paper. Goat anti-human IgG Fc was diluted with 3% skim milk powder at 1:10000, and incubated at 37° C. for 1 h at 100 μL/well. It was washed 6 times with a plate washer, and patted dry on a flat paper. TMB color developing solution was added at 100 μL/well, and wrapped with aluminum foil. Color development was performed at 37° C. in the dark for 8 min. Termination solution 1M HCl was added to terminate the color development reaction at 100 μL/well. Readings were taken at 450 nm on an ELISA reader.
This is another data set of the same source.

In experiment [11] the target is T2, Human-TNFR2-His. The description is as above. Here is the method: as §3
The source holds these as a separate data set.

The target of experiment [12] is T2, Human-TNFR2-His. Described as above. Here is the method: as §3, with “Termination solution 1M HCl was added to terminate the color development reaction at 100 μL/well.” left out
The source holds these as a separate data set.

Like-named read-outs stand apart in the source and are kept apart here.

T1 sequence (Q07011 24-186 limits assumed): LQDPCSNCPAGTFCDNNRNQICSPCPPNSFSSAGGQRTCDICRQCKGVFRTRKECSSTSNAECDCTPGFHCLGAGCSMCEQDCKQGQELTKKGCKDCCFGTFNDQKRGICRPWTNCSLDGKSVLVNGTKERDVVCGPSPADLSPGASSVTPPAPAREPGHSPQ

B1: Positive control (anti-4-1BB antibody, human IgG1) (antibody, V domains shown)
VH: QVQLQESGPGLVKPSETLSLTCTVSGSSLTSYGVHWVRQPPGKGLEGLGVIWPGGSTNYNSALMSRVTISKDNSKSQVSLKMSSLTAADTAVYYCARVTGTWYFDVWGQGTTVTVSS
VL: DIQMTQSPSSLSASLGDRVTISCSASQGISNYLNWYQQKPDGTVKLLIYYTSTLHSGVPSRFSGSGSGTDYTLTISSLQPEDIATYYCQQYSKLPWTFGGGTKLEIK
notes: also called control antibody
In the experiment with Human 4-1BB His [1], B1 displayed a Kd of 14200 pM. This molecule returned a koff in the experiment with Human 4-1BB His [1] of 0.00553 s⁻¹. The kon in the experiment with Human 4-1BB His [1] is 391000 M⁻¹ s⁻¹. Further, the “EC50 (read off the curve)” value is around 50 pM with Human 4-1BB His [2]; around 50 pM with Human 4-1BB His [3]; around 50 pM with Human 4-1BB His [4]; around 50 pM in the experiment with Human 4-1BB His [5]; around 100 pM with Human 4-1BB His [6]; around 70 pM with Human 4-1BB His [7].

B2: Positive control 2 (anti-TNFR2 VHH) (VHH)
VHH: EVQLVESGGGLVQPGGSLRLSCAASGSRLDYYAVAWFRQAPGKEREEVSCITYSGGSTNYAESVKGRFTISRDNSKNTLYLQMNSLRAEDTAVYYCTTEPYGSSCPLSGYDTWGQGTLVTVSS
The molecule B2 registered a Kd with Human-TNFR2-His [8] of 1610 pM. Besides, the off-rate (koff) with Human-TNFR2-His [8] is 0.000427 s⁻¹. This molecule also gave a kon in the experiment with Human-TNFR2-His [8] of 266000 M⁻¹ s⁻¹. Besides, the “EC50 (read off the curve)” value in the experiment with Human-TNFR2-His [9] was around 40 pM; with Human-TNFR2-His [10], around 40 pM; with Human-TNFR2-His [11], 40 to 50 pM; with Human-TNFR2-His [12], 100 to 200 pM.

What is called Kd is the free concentration of one partner at which half of the binding sites on the other are occupied at equilibrium, for simple one-to-one binding. Read a low Kd as higher affinity. What is called koff is a measure of how fast the partners let go of each other. Read a low koff as slow dissociation. For orientation: kon means the second-order rate constant of association. A low value points to slower complex formation. In general, EC50 (read off the curve) refers to the concentration giving half of the maximal effect. A low value points to an effect from little substance.
